This is an account of results in the supplement of paper PMC9112550, “Optimization of the antimicrobial peptide Bac7 by deep mutational scanning” (BMC Biology, 2022).

This data set deals with Escherichia coli TOP10. Kind of data set: shrunken log2 fold change of peptide-encoding DNA abundance (4.5 h post-induction vs induction); higher = less antimicrobial activity (less host growth inhibition). The following applies: time post-induction: 4.5 h; library: site-saturation at positions 5, 18, 19, 20.
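Also: peptides expressed intracellularly from a pBAD plasmid library in pooled LB shake-flask culture, induced with 0.3% L-arabinose, DNA abundance read by NGS, three biological replicates, DESeq2 with apeglm shrinkage.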

For the sequence RRIRVRPPRLPRPRPRPCYQPRP, the “shrunken log2 fold change” value is -0.142.

For RRIRQRPPRLPRPRPRPERMPRP, the “shrunken log2 fold change” value is 0.0275.

In the case of RRIRSRPPRLPRPRPRPFYEPRP, the “shrunken log2 fold change” value is -0.165.

Take RRIRGRPPRLPRPRPRPFLQPRP: the “shrunken log2 fold change” value amounted to 0.231.

As for RRIRPRPPRLPRPRPRPLFIPRP, the “shrunken log2 fold change” value was -0.459.

With RRIRERPPRLPRPRPRPCQKPRP, the “shrunken log2 fold change” value was -0.0135.

Take RRIRPRPPRLPRPRPRPYVNPRP: the “shrunken log2 fold change” value is -1.34.

For the sequence RRIRVRPPRLPRPRPRPGKYPRP, the “shrunken log2 fold change” value is -0.493.

Regarding RRIRHRPPRLPRPRPRPLPEPRP, the “shrunken log2 fold change” value was determined as 0.126.

On to RRIRERPPRLPRPRPRPAVLPRP, for which the “shrunken log2 fold change” value amounted to 0.034.

As to RRIRWRPPRLPRPRPRPWRSPRP, the “shrunken log2 fold change” value was determined as 0.49.

For RRIRSRPPRLPRPRPRPVTYPRP, the “shrunken log2 fold change” value was -0.273.

For RRIRRRPPRLPRPRPRPCGKPRP, the “shrunken log2 fold change” value was determined as 0.254.

Consider RRIRQRPPRLPRPRPRPANRPRP, for which the “shrunken log2 fold change” value was -0.0467.

In the case of RRIRIRPPRLPRPRPRPLDQPRP, the “shrunken log2 fold change” value is -0.127.

Consider RRIRMRPPRLPRPRPRPSMWPRP, for which the “shrunken log2 fold change” value was determined as 0.09.

As for RRIRMRPPRLPRPRPRPRPSPRP, the “shrunken log2 fold change” value came to 1.12.

With RRIRMRPPRLPRPRPRPGTAPRP, the “shrunken log2 fold change” value came out at 0.793.

Take RRIRARPPRLPRPRPRPPYFPRP: the “shrunken log2 fold change” value was 0.314.

Consider RRIRGRPPRLPRPRPRPWLDPRP, for which the “shrunken log2 fold change” value stood at 0.0661.

For RRIRNRPPRLPRPRPRPTRIPRP, the “shrunken log2 fold change” value was -0.183.

Take RRIRWRPPRLPRPRPRPRVQPRP: the “shrunken log2 fold change” value was found to be 0.927.

Regarding RRIRFRPPRLPRPRPRPLKDPRP, the “shrunken log2 fold change” value was -0.276.

As for RRIRDRPPRLPRPRPRPSSEPRP, the “shrunken log2 fold change” value was 0.186.

Turning to RRIRVRPPRLPRPRPRPNIQPRP, the “shrunken log2 fold change” value was -0.121.

Consider RRIRMRPPRLPRPRPRPLAKPRP, for which the “shrunken log2 fold change” value is 0.791.

For RRIRNRPPRLPRPRPRPKPFPRP, the “shrunken log2 fold change” value is -0.104.

Turning to RRIRNRPPRLPRPRPRPPHWPRP, the “shrunken log2 fold change” value worked out at 0.406.

For the sequence RRIRLRPPRLPRPRPRPAFLPRP, the “shrunken log2 fold change” value amounted to 0.134.

In the case of RRIRLRPPRLPRPRPRPGAFPRP, the “shrunken log2 fold change” value was -0.0131.

For RRIRVRPPRLPRPRPRPFFIPRP, the “shrunken log2 fold change” value is -0.265.

In the case of RRIRWRPPRLPRPRPRPYSIPRP, the “shrunken log2 fold change” value was -0.296.

For the sequence RRIRPRPPRLPRPRPRPMEKPRP, the “shrunken log2 fold change” value was -0.00992.

As to RRIRTRPPRLPRPRPRPYCNPRP, the “shrunken log2 fold change” value is -1.32.

For the sequence RRIRSRPPRLPRPRPRPTAAPRP, the “shrunken log2 fold change” value is 1.03.

Consider RRIRSRPPRLPRPRPRPATDPRP, for which the “shrunken log2 fold change” value was determined as 0.157.

Consider RRIRHRPPRLPRPRPRPWQTPRP, for which the “shrunken log2 fold change” value was 0.266.

Turning to RRIRCRPPRLPRPRPRPRHYPRP, the “shrunken log2 fold change” value was -0.393.

RRIRWRPPRLPRPRPRPNAGPRP: the “shrunken log2 fold change” value is -0.00207.

RRIRVRPPRLPRPRPRPYPCPRP: the “shrunken log2 fold change” value was found to be 3.36e-05.

As to RRIRFRPPRLPRPRPRPKCRPRP, the “shrunken log2 fold change” value was -0.0272.

Take RRIRQRPPRLPRPRPRPMGGPRP: the “shrunken log2 fold change” value turned out to be 0.0922.

As for RRIRIRPPRLPRPRPRPGSSPRP, the “shrunken log2 fold change” value was -0.486.

As to RRIRGRPPRLPRPRPRPMTTPRP, the “shrunken log2 fold change” value is 1.16.

Regarding RRIRCRPPRLPRPRPRPFYPPRP, the “shrunken log2 fold change” value was -0.511.

Turning to RRIRLRPPRLPRPRPRPKWCPRP, the “shrunken log2 fold change” value is 0.0847.

For RRIRVRPPRLPRPRPRPTPKPRP, the “shrunken log2 fold change” value was 0.297.

For RRIRYRPPRLPRPRPRPFIKPRP, the “shrunken log2 fold change” value was -0.263.

As for RRIRIRPPRLPRPRPRPDCGPRP, the “shrunken log2 fold change” value was found to be 0.0585.

On to RRIRARPPRLPRPRPRPAWFPRP, for which the “shrunken log2 fold change” value is 0.303.

For RRIRRRPPRLPRPRPRPFIIPRP, the “shrunken log2 fold change” value is -0.323.

As to RRIRVRPPRLPRPRPRPRHLPRP, the “shrunken log2 fold change” value was -0.222.

In the case of RRIRSRPPRLPRPRPRPYYNPRP, the “shrunken log2 fold change” value is -0.906.

With RRIRFRPPRLPRPRPRPWMIPRP, the “shrunken log2 fold change” value was -0.00776.

Take RRIRKRPPRLPRPRPRPIYMPRP: the “shrunken log2 fold change” value is -0.0645.

Take RRIRERPPRLPRPRPRPARSPRP: the “shrunken log2 fold change” value was found to be 0.0919.

For the sequence RRIRWRPPRLPRPRPRPFEPPRP, the “shrunken log2 fold change” value is 1.2.

In the case of RRIRARPPRLPRPRPRPTSSPRP, the “shrunken log2 fold change” value came out at 0.289.

In the case of RRIRPRPPRLPRPRPRPQEFPRP, the “shrunken log2 fold change” value turned out to be 0.0774.

Regarding RRIRVRPPRLPRPRPRPCNHPRP, the “shrunken log2 fold change” value was -0.588.

On to RRIRKRPPRLPRPRPRPNQPPRP, for which the “shrunken log2 fold change” value stood at 0.146.

On to RRIRWRPPRLPRPRPRPHHNPRP, for which the “shrunken log2 fold change” value is -0.478.

With RRIRQRPPRLPRPRPRPYWIPRP, the “shrunken log2 fold change” value is -0.152.

In the case of RRIRERPPRLPRPRPRPMSGPRP, the “shrunken log2 fold change” value is 0.0249.

RRIRFRPPRLPRPRPRPQNWPRP: the “shrunken log2 fold change” value is -0.148.

In the case of RRIRCRPPRLPRPRPRPPPTPRP, the “shrunken log2 fold change” value was 1.48.

In the case of RRIRMRPPRLPRPRPRPAIPPRP, the “shrunken log2 fold change” value amounted to 0.0268.

With RRIRKRPPRLPRPRPRPKISPRP, the “shrunken log2 fold change” value was -0.0246.

Regarding RRIRSRPPRLPRPRPRPWFFPRP, the “shrunken log2 fold change” value is -0.197.

RRIRNRPPRLPRPRPRPHYTPRP: the “shrunken log2 fold change” value was -0.0895.

As for RRIRHRPPRLPRPRPRPRVRPRP, the “shrunken log2 fold change” value is 0.0975.

As to RRIRKRPPRLPRPRPRPMVMPRP, the “shrunken log2 fold change” value was 0.0746.

In the case of RRIRLRPPRLPRPRPRPNVDPRP, the “shrunken log2 fold change” value is -0.492.

With RRIRWRPPRLPRPRPRPHYLPRP, the “shrunken log2 fold change” value is -0.106.

Consider RRIRWRPPRLPRPRPRPVWGPRP, for which the “shrunken log2 fold change” value was 0.131.

Regarding RRIRKRPPRLPRPRPRPMNEPRP, the “shrunken log2 fold change” value came to 0.22.

For the sequence RRIRMRPPRLPRPRPRPNFCPRP, the “shrunken log2 fold change” value is 0.0533.

As to RRIRLRPPRLPRPRPRPHKKPRP, the “shrunken log2 fold change” value is -0.163.

On to RRIRSRPPRLPRPRPRPLQGPRP, for which the “shrunken log2 fold change” value was -0.0686.

As for RRIRQRPPRLPRPRPRPITFPRP, the “shrunken log2 fold change” value is -0.11.

On to RRIRRRPPRLPRPRPRPIQWPRP, for which the “shrunken log2 fold change” value was -0.105.

On to RRIRSRPPRLPRPRPRPDCKPRP, for which the “shrunken log2 fold change” value is -0.0745.

In the case of RRIRMRPPRLPRPRPRPYAVPRP, the “shrunken log2 fold change” value was -0.0789.

Take RRIRERPPRLPRPRPRPWLKPRP: the “shrunken log2 fold change” value is -0.24.

RRIRTRPPRLPRPRPRPPVTPRP: the “shrunken log2 fold change” value stood at 0.361.

Turning to RRIRHRPPRLPRPRPRPSGPPRP, the “shrunken log2 fold change” value stood at 0.082.

Take RRIRPRPPRLPRPRPRPYGSPRP: the “shrunken log2 fold change” value is -0.0157.

For RRIRMRPPRLPRPRPRPHCLPRP, the “shrunken log2 fold change” value is -0.0601.

For the sequence RRIRIRPPRLPRPRPRPWCWPRP, the “shrunken log2 fold change” value is -0.146.

In the case of RRIRIRPPRLPRPRPRPDIPPRP, the “shrunken log2 fold change” value is -0.112.

For RRIRQRPPRLPRPRPRPGTSPRP, the “shrunken log2 fold change” value was -0.523.

In the case of RRIRIRPPRLPRPRPRPWSFPRP, the “shrunken log2 fold change” value is -0.0245.

RRIRNRPPRLPRPRPRPYDYPRP: the “shrunken log2 fold change” value is -0.129.

As to RRIRYRPPRLPRPRPRPRNRPRP, the “shrunken log2 fold change” value was -0.0543.

With RRIRARPPRLPRPRPRPTQPPRP, the “shrunken log2 fold change” value worked out at 0.228.

As to RRIRMRPPRLPRPRPRPSFRPRP, the “shrunken log2 fold change” value worked out at 0.142.

As to RRIRIRPPRLPRPRPRPWKQPRP, the “shrunken log2 fold change” value was -0.00674.

Consider RRIRYRPPRLPRPRPRPDDEPRP, for which the “shrunken log2 fold change” value is 0.00902.

Consider RRIRVRPPRLPRPRPRPHFQPRP, for which the “shrunken log2 fold change” value is -0.154.

Turning to RRIRMRPPRLPRPRPRPKAPPRP, the “shrunken log2 fold change” value was 1.42.

As to RRIRQRPPRLPRPRPRPHSFPRP, the “shrunken log2 fold change” value was -0.00144.

Regarding RRIRFRPPRLPRPRPRPEPEPRP, the “shrunken log2 fold change” value is 0.864.

As for RRIRSRPPRLPRPRPRPLTEPRP, the “shrunken log2 fold change” value is 0.21.

As for RRIRIRPPRLPRPRPRPLIMPRP, the “shrunken log2 fold change” value was -0.853.

Take RRIRMRPPRLPRPRPRPVTLPRP: the “shrunken log2 fold change” value is -0.393.

With RRIRWRPPRLPRPRPRPARAPRP, the “shrunken log2 fold change” value was 0.563.

As for RRIRWRPPRLPRPRPRPFVSPRP, the “shrunken log2 fold change” value was -0.135.

As to RRIRCRPPRLPRPRPRPYVLPRP, the “shrunken log2 fold change” value is -0.903.

Regarding RRIRIRPPRLPRPRPRPKHLPRP, the “shrunken log2 fold change” value was -0.137.

Consider RRIRWRPPRLPRPRPRPVLVPRP, for which the “shrunken log2 fold change” value is 0.298.

RRIRQRPPRLPRPRPRPLFTPRP: the “shrunken log2 fold change” value was -0.426.

For the sequence RRIRWRPPRLPRPRPRPAMAPRP, the “shrunken log2 fold change” value amounted to 0.529.

Turning to RRIRQRPPRLPRPRPRPDHNPRP, the “shrunken log2 fold change” value is -0.328.

Consider RRIRNRPPRLPRPRPRPLSPPRP, for which the “shrunken log2 fold change” value is -0.215.

As for RRIRGRPPRLPRPRPRPPRQPRP, the “shrunken log2 fold change” value was determined as 1.27.

Turning to RRIRNRPPRLPRPRPRPRVHPRP, the “shrunken log2 fold change” value was determined as 0.172.

For RRIRDRPPRLPRPRPRPYHMPRP, the “shrunken log2 fold change” value is -0.00968.

With RRIRDRPPRLPRPRPRPESPPRP, the “shrunken log2 fold change” value turned out to be 0.000713.

Consider RRIRVRPPRLPRPRPRPYFRPRP, for which the “shrunken log2 fold change” value is -0.153.

Take RRIRVRPPRLPRPRPRPEDFPRP: the “shrunken log2 fold change” value came out at 0.0252.

For RRIRNRPPRLPRPRPRPVPWPRP, the “shrunken log2 fold change” value is 0.23.

Turning to RRIRERPPRLPRPRPRPSAPPRP, the “shrunken log2 fold change” value is 0.18.

In the case of RRIRNRPPRLPRPRPRPEWDPRP, the “shrunken log2 fold change” value was -0.00515.

Turning to RRIRPRPPRLPRPRPRPKHAPRP, the “shrunken log2 fold change” value stood at 0.824.

In the case of RRIRCRPPRLPRPRPRPLTRPRP, the “shrunken log2 fold change” value stood at 0.258.
